Measured values reported in patent US10975123B2, “Mutant Akt-specific capture agents, compositions, and methods of using and making” (California Institute of Technology, priority 2014, dated 2021).
Primed or numbered codes have the meaning given here. Where no end group is shown, it is not given here. [ ]: non-standard residue; d: D form. PEG5′ = PEG5 linker

Key:
[1] = target: T1, HEK-293T cells expressing GFP-tagged E17K PH Domain (Homo sapiens, UniProt P31749, E17K); test: Cell imaging, cells expressing E17K protein; format: cell-based; settings: confocal imaging, 50 nM, compared with WT cells, in words
T1 construct: transfected to express GFP-tagged E17K or GFP-tagged WT PH Domain proteins; expressed in transfected cells; host or cells: HEK-293T
T1 sequence (P31749 5-108 E17K limits assumed): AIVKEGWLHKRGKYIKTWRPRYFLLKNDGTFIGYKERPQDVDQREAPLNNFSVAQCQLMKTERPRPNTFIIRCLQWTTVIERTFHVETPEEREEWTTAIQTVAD
From the text: The yleaf ligand was then labeled with both a Tat cell-penetrating peptide^22 and a Cy5 dye (FIG. 2a). The combination of the GFP label on the protein and the Cy5 label on the dye permitted the use of multi-color fluorescence microscopy for interrogating any spatial registry between the two fluorescent labels, as well as tracking the efficiency of the protein expression in the cells. Live HEK-293T cells expressing these GFP-tagged proteins were exposed to varying concentrations of the modified yleaf anchor ligand 6 for one hour. The cells were then incubated in fresh media for one hour before being thoroughly washed in PBS to remove weakly and nonspecifically bound PCC and fixed for fluorescence microscopy measurements.
However, the level of the PCC agent retained by the cells was substantially different (FIG. 4). […] Pearson's correlation coefficient was used to quantify the co-localization of the two different dyes^23 by calculating over four representative images for each of the WT or E17K mutant cells and averaging the results. […] The Cy5 fluorescence intensity on a per cell basis has also been calculated for the cells expressing the WT and E17K proteins, and this difference is again statistically significant (p=0.00018). […]

[2] = target: full length Akt1E17K (Homo sapiens, UniProt P31749, E17K); test: Fluorescence polarization binding to full-length E17K Akt1; settings: triligand 9, triplicate, in words
full length Akt1E17K, sequence (P31749 whole entry E17K): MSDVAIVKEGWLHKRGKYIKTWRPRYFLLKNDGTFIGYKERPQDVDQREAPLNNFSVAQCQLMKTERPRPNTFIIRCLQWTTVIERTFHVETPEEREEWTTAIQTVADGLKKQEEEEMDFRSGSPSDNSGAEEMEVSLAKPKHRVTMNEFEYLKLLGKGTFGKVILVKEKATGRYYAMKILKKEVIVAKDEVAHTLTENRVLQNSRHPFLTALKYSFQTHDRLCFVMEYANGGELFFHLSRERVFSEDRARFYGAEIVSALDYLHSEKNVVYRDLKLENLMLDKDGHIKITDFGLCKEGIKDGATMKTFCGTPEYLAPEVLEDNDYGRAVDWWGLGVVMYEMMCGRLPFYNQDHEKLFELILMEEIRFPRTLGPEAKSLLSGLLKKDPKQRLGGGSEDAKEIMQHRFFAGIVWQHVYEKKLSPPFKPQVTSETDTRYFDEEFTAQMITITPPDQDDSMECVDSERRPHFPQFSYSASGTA
Method: FIG. 2: Anchor ligand structure and characterization. (FIG. 2A) The peptide anchor ligand, yleaf (SEQ ID NO: 43), which was discovered using the epitope-targeting technique. The different sets of R groups indicate the modifications that were made to perform the various experiments described. (FIG. 2B) Point ELISA for specificity obtained by immobilizing biotinylated yleaf (SEQ ID NO: 43) anchor ligand 2 onto a Neutravidin plate, then incubating with a 6 His-tagged epitope (“6 His” disclosed as SEQ ID NO: 4) 3. […] (FIG. 2C) Binding curves of yleaf (SEQ ID NO: 43) anchor ligand 4 to the full-length WT or E17K mutant Akt1 proteins obtained in solution by fluorescence polarization. A saturation point for the WT ligand was not reached due to the prohibitively high protein concentration required. (FIG. 2D) Full binding curves of yleaf (SEQ ID NO: 43) anchor ligand 4 to the WT or E17K mutant epitopes. […] All assays were performed in triplicate and averaged. Error bars indicate standard deviation.
FIG. 5: The PCC agent triligand development strategy, structure, and inhibition data. (FIG. 5A) The yleaf (SEQ ID NO: 43) anchor ligand with a C-terminal alkyne 2 was screened against an azide-terminated library in the presence of the full-length PH Domain to identify a biligand. The biligand 7 was then appended with an N-terminal azide and screened against an alkyne library to identify a triligand. […]

Row | Substance | retention of Cy5-labeled ligand in cells expressing E17K PH Domain (Cy5 signal) [1] | selectivity for E17K over WT full-length protein by fluorescence polarization [2]
1 | PEG5-TAT-Cy5: control construct with no anchor ligand peptide, used in cell imaging ([PEG5′]YGRKKRRQRR; not fully specified (C-terminus); numbers in words are those of the source; also: Cy5 dye attached, site not given here) | looks the same as the WT PH Domain images | 
2 | triligand 9: form of the ivdae-yleaf-yksy triligand used in fluorescence polarization assays (peptide 1 [dI][dV][dD][dA][dE]; peptide 2 [dY][dL][dE][dA][dF]; peptide 3 [dY][dK][dS][dY]; also: three chains joined by triazole click linkages (Lys(N3) and Pra handles), places not settled) |  | E17K mutant selectivity is retained
